pKd: −log10 of the molar value. Like-named read-outs stand apart in the source and are kept apart here.
Legend:
[1] = system: PmrA M12I (Acinetobacter baumannii ATCC 19606); assay: fluorescence anisotropy
[2] = system: PmrA I13M (Acinetobacter baumannii ATCC 19606); assay: fluorescence anisotropy
[3] = system: PmrA M12I (Acinetobacter baumannii ATCC 19606); assay: fluorescence anisotropy; remark: listed apart in the source
[4] = system: PmrA I13M (Acinetobacter baumannii ATCC 19606); assay: fluorescence anisotropy; remark: listed apart in the source
[5] = target: phosphorylated PmrA D10N (Acinetobacter baumannii (strain ATCC 19606)); assay: native gel or EMSA; Native PAGE after reaction of 40 uM PmrA with 20 uM PmrB and ATP (phosphorylated PmrA); 14% Tris-glycine gel, 4 C
[6] = target: phosphorylated PmrA G54E (Acinetobacter baumannii (strain ATCC 19606)); assay: as above
[7] = target: phosphorylated PmrA I13M (Acinetobacter baumannii (strain ATCC 19606)); assay: as above
[8] = target: phosphorylated PmrA M12I (Acinetobacter baumannii (strain ATCC 19606)); assay: as above
[9] = target: phosphorylated PmrA S119T (Acinetobacter baumannii (strain ATCC 19606)); assay: as above
[10] = target: phosphorylated WT PmrA (Acinetobacter baumannii (strain ATCC 19606)); assay: as above

AbpmrC_30mer FAM gave a pKd [1] of 7.37, a pKd [2] of 7.29 and a pKd [3] of 4.68. It also gave a pKd [4] of 4.76.
“phosphorylated PmrA D10N (natural protein)” gave a stoichiometry N [5] of 2.
Substance “phosphorylated PmrA G54E (natural protein)” has a stoichiometry N [6] of 2.
“phosphorylated PmrA I13M (natural protein)” was tested, and the stoichiometry N [7] was 2.
With “phosphorylated PmrA M12I (natural protein)” the stoichiometry N [8] was 2.
Substance “phosphorylated PmrA S119T (natural protein)” has a stoichiometry N [9] of 2.
“phosphorylated WT PmrA (natural protein)” showed a stoichiometry N [10] of 2.

Source: publication PMC12654582
